Assay results as given in patent publication US8796227B2, “Peptides for inhibiting chemokine binding to chemokine receptors” (Biokine Therapeutics Ltd., priority 2002, dated 2014).

Assays:
Test in all cases: Biovalidation: laminar flow assay, chemokine and VCAM-1 activated adhesion of T cells
Type in all cases: cell-based
[1] = biological target: T1, MIG (Homo sapiens, UniProt Q07325); conditions: T cell adhesion under flow, VCAM-1
T1 construct: purchased PeproTech, Inc. 300-26
T1 sequence (Q07325 23-125): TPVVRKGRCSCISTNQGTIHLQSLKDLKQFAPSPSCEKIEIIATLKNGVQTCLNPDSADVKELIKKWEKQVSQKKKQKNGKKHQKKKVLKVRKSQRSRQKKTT
Experimental: (§1) 50 ml blood was added to 10 ml Dextran (Dextran T-500 6% w/v) in PBS (phosphate buffer saline), and 7 ml citrate buffer (25 g citrate, 8 g citric acid in 500 ml PBS). The solution was incubated for 30 min at 25° C. 10 ml Ficoll 1077 (Sigma) was added to the bottom of the tube. The tube was then centrifuged at 2,000 rpm for 30 min, at 18° C., (with the brake mode of the centrifuge off). The interphase was collected and washed twice with 8 ml PBS-5% FCS (fetal calf serum), followed by centrifugation at 1,400 rpm, for 5 min, at 18° C. The cells were re-suspended in PBS-5% FCS at a concentration less than 10^8/ml. 2 ml of the cell solution were applied and incubated for 45 min at 25° C. on a Perspex Nylon wool column, which was pre-soaked with PBS-5% FCS. Each column was washed with 8 ml PBS-5% FCS and the cells (T-cells and erythrocytes) were eluted by 50 ml of 5 mM EDTA in PBS. A red pellet was obtained by centrifugation at 1,400 rpm, at 4° C., for 5 min, with the brake on. In order to perform lysis of the erythrocytes, the red pellet was re-suspended in 5 ml lysis-buffer (155 mM NH4Cl, 10 mM KHCO3, 0.1 mM EDTA, X0.1PBS) for 4 min, followed by immediate addition of 50 ml of PBS-EDTA.
(§2) Following centrifugation at 1,400 rpm, at 4° C., for 5 min with brake on, the pellet was washed again with 50 ml PBS-EDTA and re-centrifuged under the same conditions. A white pellet was obtained and re-suspended in RPMI/10% FCS/L-glutamine/sodium pyruvate/antibiotics at a concentration of 3^X10^6 cells/ml. The cells were incubated for 2 h at 37° C., followed by collection of the non-adherent cells. The cells were ready for use in experiments after overnight incubation at 37° C. […]
Laminar flow assays were performed as follows. Polystyrene plates (B.D) were coated with soluble VCAM-1 at 10 μg/ml in the presence of 2 μg/ml HSA carrier. The plates were washed three times with PBS and blocked with HSA (20 μg/ml in PBS) for 2 hrs at room temperature. Alternatively, washed plates were coated with 10 μg/ml MIG chemokine in PBS for 30 min at room temperature, before being blocked with HSA. The plates were assembled as the lower wall of a parallel wall flow chamber and mounted on the stage of an inverted microscope. The peptide, as described previously, (10 μg/ml) was allowed to settle on the substrate coated chamber wall for 10 min, at 37° C. and then washed. T cells (5×10^6/ml, purity >98%) were suspended in binding buffer, perfused into the chamber and allowed to settle on the substrate coated chamber wall for 1 min, at 37° C. Flow was initiated and increased in 2 to 2.5 fold increments every 5 sec. generating controlled shear stresses on the wall. Cells were visualized in a 20× objective of an inverted phase-contrast Diaphot Microscope (Nikon, Japan) and photographed with a long integration LIS-700 CCD video camera (Applitech; Holon, Israel), connected to a video recorder (AG-6730 S-VHS, Panasonic, Japan). The number of adherent cells resisting detachment by the elevated shear forces was determined after each interval by analysis of videotaped cell images, and was expressed as the percent of originally settled cells. All adhesion experiments were performed at least three times on multiple test fields.

[2] = biological target: T2, Eotaxin (Homo sapiens, UniProt P51671)
T2 construct: purchased PeproTech, Inc. 300-21
T2 sequence (P51671 24-97): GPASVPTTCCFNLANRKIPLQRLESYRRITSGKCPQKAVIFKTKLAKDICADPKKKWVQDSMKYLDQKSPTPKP

[3] = biological target: T3, SDF-1α (Homo sapiens, UniProt P48061)
T3 construct: purchased PeproTech, Inc. 300-28A
T3 sequence (P48061 22-89 limits assumed): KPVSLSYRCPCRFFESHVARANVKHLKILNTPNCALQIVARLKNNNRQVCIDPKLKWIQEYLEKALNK
Experimental: as §1, §2
Laminar flow assays were performed as follows. […] The number of adherent cells resisting detachment by the elevated shear forces was determined after each interval by analysis of videotaped cell images, and was expressed as the percent of originally settled cells. […]

[4] = biological target: T4, IL-8 (Homo sapiens, UniProt P10145); set-up: key to Level of Antagonistic Effect / Level of Effect: + 20%; ++ 50%; +++ 100%; − No effect; conditions: VCAM-1
T4 construct: human IL-8, (72 amino acids) (Cat. No. 200-08M); purchased PeproTech, Inc. 200-08M
T4 sequence (P10145 28-99): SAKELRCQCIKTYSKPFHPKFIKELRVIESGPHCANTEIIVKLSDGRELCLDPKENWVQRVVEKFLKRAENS

[5] = T cell adhesion under flow, VCAM-1

QIPQMRILHPYG [BKT-P23] was tested, and the “Reduction of the activity of MIG” value [1] was “no effect”, the “Kind of Effect” value ([2]; Chemokine checked EOTAXIN) was “Antagonist” and the “Level of Effect” value ([2]; Chemokine checked Eotaxin, T cells, VCAM-1, peptide 10 μg/ml) was “+++ (+++ 100%)”. The “Blocking of the activity of Eotaxin” value [2, 5] was 100%, the “Kind of Effect” value ([3]; Chemokine checked SDF-1α) was “Antagonist” and the “Level of Effect” value ([3]; Chemokine checked SDF-1α, T cells, VCAM-1, peptide 10 μg/ml) was “+ (+ 20%)”. For the same sequence, the “Blocking of the activity of SDF-1α” value [3, 5] was “about 20%”, the “Level of Effect” value ([4]; Chemokine checked IL-8, T cells, peptide 10 μg/ml) was “−” and the “Abolishment of the activity of IL-8” value ([4]; T cell adhesion under flow) was “no effect”.
